# According to US20160075733A1:
# Biological target: low density lipoprotein receptor (LDLR) expressed on HEK293 cells transfected with LDLR modified mRNA (mRNA SEQ ID NO: 21463) (human) (UniProt P01130)
# Experiment: Flow cytometry (FACS): increasing amounts of BODIPY-LDL on HEK293 cells transfected with LDLR mRNA, 1.0 h at 37 C
# Chain of low density lipoprotein receptor (LDLR) expressed on HEK293 cells transfected with LDLR modified mRNA (mRNA SEQ ID NO: 21463) (human) (P01130 22-860): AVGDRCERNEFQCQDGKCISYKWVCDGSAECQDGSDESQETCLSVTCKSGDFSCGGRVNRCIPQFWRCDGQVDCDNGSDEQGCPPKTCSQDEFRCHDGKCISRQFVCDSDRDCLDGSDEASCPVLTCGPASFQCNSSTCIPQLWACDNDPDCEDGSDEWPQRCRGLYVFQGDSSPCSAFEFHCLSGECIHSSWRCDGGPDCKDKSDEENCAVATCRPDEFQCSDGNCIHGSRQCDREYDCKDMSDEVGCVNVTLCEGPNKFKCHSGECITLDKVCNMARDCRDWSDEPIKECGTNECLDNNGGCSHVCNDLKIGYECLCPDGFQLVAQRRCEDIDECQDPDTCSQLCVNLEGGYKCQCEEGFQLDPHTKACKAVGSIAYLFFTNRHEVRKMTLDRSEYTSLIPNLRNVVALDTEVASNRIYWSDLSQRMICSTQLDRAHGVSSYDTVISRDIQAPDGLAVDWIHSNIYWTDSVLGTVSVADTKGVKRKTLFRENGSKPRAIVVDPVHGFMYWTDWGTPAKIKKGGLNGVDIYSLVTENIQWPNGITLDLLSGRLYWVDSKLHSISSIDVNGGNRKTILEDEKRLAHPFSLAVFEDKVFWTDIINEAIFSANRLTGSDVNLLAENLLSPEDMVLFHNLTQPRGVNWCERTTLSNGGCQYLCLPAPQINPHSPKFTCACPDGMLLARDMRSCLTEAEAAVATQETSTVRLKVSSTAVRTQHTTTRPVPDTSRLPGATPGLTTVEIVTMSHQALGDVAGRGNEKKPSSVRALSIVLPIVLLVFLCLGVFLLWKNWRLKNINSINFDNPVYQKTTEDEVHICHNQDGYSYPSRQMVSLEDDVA
substance,measurement,value
BODIPY-labeled LDL (low density lipoprotein) (from UniProt P04114 28-4563) (ligand),Kd,0.06 µg/mL
